# Biological target: T1, His-tagged human HtrA1 protease domain (human, UniProt Q92743 161-367)
# T1 construct: His-tagged protease domain; also called huHtrA1-PD-His; huHtrA1-PD
# Assay: SPR (BIACORE T200), huHtrA1-PD-His captured by anti-His, Fab injected
# Protocol: (§1) To determine the binding affinity of selected Fab variants for HtrA1, SPR measurement with a BIACORE™ T200 instrument was performed. Briefly, a series S sensor chip CM5 was activated with 1-EDC and NHS reagents according to the supplier's instructions, and anti-His antibody was coupled to achieve 200-300 response units (RU), then following by blocking un-reacted groups with 1 M ethanolamine. For kinetics measurements, approximately 5 nM of huHtrA1-PD-His was first injected at 10 μl/min flow rate to capture approximately 100 RU at 2 different flow cells (FC), except for FC1 (which served as a reference). Next, 5-fold serial dilutions of Fab in HBS-P buffer (0.01M HEPES pH 7.4, 0.15M NaCl, 0.005% surfactant P20) from low (0.8 nM) to high (50 nM) were injected (flow rate: 30 μl/min). The binding responses on HtrA1 were corrected by subtracting of RU from a blank flow cell. The sensorgram was recorded and subject to reference and buffer subtraction before evaluating by BIACORE® T200 Evaluation Software (version 2.0). Association rates (kₒₙ) and dissociation rates (koff) were calculated using a simple one-to-one Langmuir binding model. The equilibrium dissociation constant (KD) was calculated as the ratio of koff/kₒₙ.
# T1 sequence (Q92743 other isoform, or with tags, fused parts or gaps limits assumed): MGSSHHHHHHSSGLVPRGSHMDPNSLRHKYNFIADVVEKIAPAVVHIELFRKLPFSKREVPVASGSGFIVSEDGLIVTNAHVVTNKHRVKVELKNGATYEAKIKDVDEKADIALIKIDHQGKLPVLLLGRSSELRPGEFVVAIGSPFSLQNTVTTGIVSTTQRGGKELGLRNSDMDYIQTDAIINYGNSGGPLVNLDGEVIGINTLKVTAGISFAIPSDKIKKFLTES
Binder,Kd [pM],koff [s⁻¹],kon [M⁻¹ s⁻¹]
"h15H6.v2 variant HC4 (HC-T28R) Fab (Fab, V domains shown, Fab-Flag tag fusion from 293T cells) VH: EVQLVQSGAEVKKPGASVKVSCKASGYRFTDSEMHWVRQAPGQGLEWIGGVDPETDGAAYNQKFKGRATITRDTSTSTAYLELSSLRSEDTAVYYCTRGYDYDYALDYWGQGTLVTVSS VL: DIQMTQSPSSLSASVGDRVTITCRASSSVNFIHWYQQKPGKAPKPLISATSNLASGVPSRFSGSGSGTDFTLTISSLQPEDFATYYCQQWSSNPWTFGQGTKVEIK",643,0.000212,331000
"h15H6.v2 variant LC5 (LC-N53E) Fab (Fab, V domains shown, Fab-Flag tag fusion from 293T cells) VH: EVQLVQSGAEVKKPGASVKVSCKASGYTFTDSEMHWVRQAPGQGLEWIGGVDPETDGAAYNQKFKGRATITRDTSTSTAYLELSSLRSEDTAVYYCTRGYDYDYALDYWGQGTLVTVSS VL: DIQMTQSPSSLSASVGDRVTITCRASSSVNFIHWYQQKPGKAPKPLISATSELASGVPSRFSGSGSGTDFTLTISSLQPEDFATYYCQQWSSNPWTFGQGTKVEIK",481,0.000212,441000
"h15H6.v2 variant HC5 (HC-M34L) Fab (Fab, V domains shown, Fab-Flag tag fusion from 293T cells) VH: EVQLVQSGAEVKKPGASVKVSCKASGYTFTDSELHWVRQAPGQGLEWIGGVDPETDGAAYNQKFKGRATITRDTSTSTAYLELSSLRSEDTAVYYCTRGYDYDYALDYWGQGTLVTVSS VL: DIQMTQSPSSLSASVGDRVTITCRASSSVNFIHWYQQKPGKAPKPLISATSNLASGVPSRFSGSGSGTDFTLTISSLQPEDFATYYCQQWSSNPWTFGQGTKVEIK",481,0.000246,511000
"h15H6.v2 variant HC8 (HC-Y100I) Fab (Fab, V domains shown, Fab-Flag tag fusion from 293T cells) VH: EVQLVQSGAEVKKPGASVKVSCKASGYTFTDSEMHWVRQAPGQGLEWIGGVDPETDGAAYNQKFKGRATITRDTSTSTAYLELSSLRSEDTAVYYCTRGYDYDIALDYWGQGTLVTVSS VL: DIQMTQSPSSLSASVGDRVTITCRASSSVNFIHWYQQKPGKAPKPLISATSNLASGVPSRFSGSGSGTDFTLTISSLQPEDFATYYCQQWSSNPWTFGQGTKVEIK",603,0.000237,393000
"h15H6.v2 variant HC3 (HC-T28K) Fab (Fab, V domains shown, Fab-Flag tag fusion from 293T cells) VH: EVQLVQSGAEVKKPGASVKVSCKASGYKFTDSEMHWVRQAPGQGLEWIGGVDPETDGAAYNQKFKGRATITRDTSTSTAYLELSSLRSEDTAVYYCTRGYDYDYALDYWGQGTLVTVSS VL: DIQMTQSPSSLSASVGDRVTITCRASSSVNFIHWYQQKPGKAPKPLISATSNLASGVPSRFSGSGSGTDFTLTISSLQPEDFATYYCQQWSSNPWTFGQGTKVEIK",374,0.000171,456000
"h15H6.v2 variant LC9 (LC-S93I) Fab (Fab, V domains shown, Fab-Flag tag fusion from 293T cells) VH: EVQLVQSGAEVKKPGASVKVSCKASGYTFTDSEMHWVRQAPGQGLEWIGGVDPETDGAAYNQKFKGRATITRDTSTSTAYLELSSLRSEDTAVYYCTRGYDYDYALDYWGQGTLVTVSS VL: DIQMTQSPSSLSASVGDRVTITCRASSSVNFIHWYQQKPGKAPKPLISATSNLASGVPSRFSGSGSGTDFTLTISSLQPEDFATYYCQQWSINPWTFGQGTKVEIK",2150,0.000404,188000
"h15H6.v2 variant LC1 (LC-S29R) Fab (Fab, V domains shown, Fab-Flag tag fusion from 293T cells) VH: EVQLVQSGAEVKKPGASVKVSCKASGYTFTDSEMHWVRQAPGQGLEWIGGVDPETDGAAYNQKFKGRATITRDTSTSTAYLELSSLRSEDTAVYYCTRGYDYDYALDYWGQGTLVTVSS VL: DIQMTQSPSSLSASVGDRVTITCRASSRVNFIHWYQQKPGKAPKPLISATSNLASGVPSRFSGSGSGTDFTLTISSLQPEDFATYYCQQWSSNPWTFGQGTKVEIK",1550,0.000229,148000
"h15H6.v2 variant LC4 (LC-N53H) Fab (Fab, V domains shown, Fab-Flag tag fusion from 293T cells) VH: EVQLVQSGAEVKKPGASVKVSCKASGYTFTDSEMHWVRQAPGQGLEWIGGVDPETDGAAYNQKFKGRATITRDTSTSTAYLELSSLRSEDTAVYYCTRGYDYDYALDYWGQGTLVTVSS VL: DIQMTQSPSSLSASVGDRVTITCRASSSVNFIHWYQQKPGKAPKPLISATSHLASGVPSRFSGSGSGTDFTLTISSLQPEDFATYYCQQWSSNPWTFGQGTKVEIK",517,0.000213,413000
"h15H6.v2 variant HC2 (HC-T30R) Fab (Fab, V domains shown, Fab-Flag tag fusion from 293T cells) VH: EVQLVQSGAEVKKPGASVKVSCKASGYTFRDSEMHWVRQAPGQGLEWIGGVDPETDGAAYNQKFKGRATITRDTSTSTAYLELSSLRSEDTAVYYCTRGYDYDYALDYWGQGTLVTVSS VL: DIQMTQSPSSLSASVGDRVTITCRASSSVNFIHWYQQKPGKAPKPLISATSNLASGVPSRFSGSGSGTDFTLTISSLQPEDFATYYCQQWSSNPWTFGQGTKVEIK",449,0.000164,366000
"h15H6.v2 variant LC6 (LC-Q89H) Fab (Fab, V domains shown, Fab-Flag tag fusion from 293T cells) VH: EVQLVQSGAEVKKPGASVKVSCKASGYTFTDSEMHWVRQAPGQGLEWIGGVDPETDGAAYNQKFKGRATITRDTSTSTAYLELSSLRSEDTAVYYCTRGYDYDYALDYWGQGTLVTVSS VL: DIQMTQSPSSLSASVGDRVTITCRASSSVNFIHWYQQKPGKAPKPLISATSNLASGVPSRFSGSGSGTDFTLTISSLQPEDFATYYCHQWSSNPWTFGQGTKVEIK",642,0.000251,390000
"h15H6.v2 variant HC6 (HC-E53A) Fab (Fab, V domains shown, Fab-Flag tag fusion from 293T cells) VH: EVQLVQSGAEVKKPGASVKVSCKASGYTFTDSEMHWVRQAPGQGLEWIGGVDPATDGAAYNQKFKGRATITRDTSTSTAYLELSSLRSEDTAVYYCTRGYDYDYALDYWGQGTLVTVSS VL: DIQMTQSPSSLSASVGDRVTITCRASSSVNFIHWYQQKPGKAPKPLISATSNLASGVPSRFSGSGSGTDFTLTISSLQPEDFATYYCQQWSSNPWTFGQGTKVEIK",2580,0.00026,101000
"h15H6.v2 variant LC10 (LC-F32V, LC-S92K) Fab (Fab, V domains shown, Fab-Flag tag fusion from 293T cells) VH: EVQLVQSGAEVKKPGASVKVSCKASGYTFTDSEMHWVRQAPGQGLEWIGGVDPETDGAAYNQKFKGRATITRDTSTSTAYLELSSLRSEDTAVYYCTRGYDYDYALDYWGQGTLVTVSS VL: DIQMTQSPSSLSASVGDRVTITCRASSSVNVIHWYQQKPGKAPKPLISATSNLASGVPSRFSGSGSGTDFTLTISSLQPEDFATYYCQQWKSNPWTFGQGTKVEIK",8420,0.00213,253000
"h15H6.v2 variant HC1 (HC-T30K) Fab (Fab, V domains shown, Fab-Flag tag fusion from 293T cells) VH: EVQLVQSGAEVKKPGASVKVSCKASGYTFKDSEMHWVRQAPGQGLEWIGGVDPETDGAAYNQKFKGRATITRDTSTSTAYLELSSLRSEDTAVYYCTRGYDYDYALDYWGQGTLVTVSS VL: DIQMTQSPSSLSASVGDRVTITCRASSSVNFIHWYQQKPGKAPKPLISATSNLASGVPSRFSGSGSGTDFTLTISSLQPEDFATYYCQQWSSNPWTFGQGTKVEIK",475,0.000165,347000
"h15H6.v2 variant LC8 (LC-S92K) Fab (Fab, V domains shown, Fab-Flag tag fusion from 293T cells) VH: EVQLVQSGAEVKKPGASVKVSCKASGYTFTDSEMHWVRQAPGQGLEWIGGVDPETDGAAYNQKFKGRATITRDTSTSTAYLELSSLRSEDTAVYYCTRGYDYDYALDYWGQGTLVTVSS VL: DIQMTQSPSSLSASVGDRVTITCRASSSVNFIHWYQQKPGKAPKPLISATSNLASGVPSRFSGSGSGTDFTLTISSLQPEDFATYYCQQWKSNPWTFGQGTKVEIK",1160,0.000397,343000
"h15H6.v2 variant HC7 (HC-A58F) Fab (Fab, V domains shown, Fab-Flag tag fusion from 293T cells) VH: EVQLVQSGAEVKKPGASVKVSCKASGYTFTDSEMHWVRQAPGQGLEWIGGVDPETDGAFYNQKFKGRATITRDTSTSTAYLELSSLRSEDTAVYYCTRGYDYDYALDYWGQGTLVTVSS VL: DIQMTQSPSSLSASVGDRVTITCRASSSVNFIHWYQQKPGKAPKPLISATSNLASGVPSRFSGSGSGTDFTLTISSLQPEDFATYYCQQWSSNPWTFGQGTKVEIK",611,0.000165,271000
"h15H6.v2 variant HC9 (HC-A100aP) Fab (Fab, V domains shown, Fab-Flag tag fusion from 293T cells) VH: EVQLVQSGAEVKKPGASVKVSCKASGYTFTDSEMHWVRQAPGQGLEWIGGVDPETDGAAYNQKFKGRATITRDTSTSTAYLELSSLRSEDTAVYYCTRGYDYDYPLDYWGQGTLVTVSS VL: DIQMTQSPSSLSASVGDRVTITCRASSSVNFIHWYQQKPGKAPKPLISATSNLASGVPSRFSGSGSGTDFTLTISSLQPEDFATYYCQQWSSNPWTFGQGTKVEIK",618,0.00021,340000
"h15H6.v2 variant LC2 (LC-N31H) Fab (Fab, V domains shown, Fab-Flag tag fusion from 293T cells) VH: EVQLVQSGAEVKKPGASVKVSCKASGYTFTDSEMHWVRQAPGQGLEWIGGVDPETDGAAYNQKFKGRATITRDTSTSTAYLELSSLRSEDTAVYYCTRGYDYDYALDYWGQGTLVTVSS VL: DIQMTQSPSSLSASVGDRVTITCRASSSVHFIHWYQQKPGKAPKPLISATSNLASGVPSRFSGSGSGTDFTLTISSLQPEDFATYYCQQWSSNPWTFGQGTKVEIK",836,0.00019,228000

# Biological target: T1, His-tagged human HtrA1 protease domain
# Assay: as above
# Remark: another data set of the same source
# Protocol: These combination mutants included both a variant light chain and a variant heavy chain. BIACORE™ kinetic analysis was performed (as described below in Section C) using the combination mutants.
# as §1
Binder,Kd [pM],koff [s⁻¹],kon [M⁻¹ s⁻¹]
"combination mutant LC3.HC2 Fab (Fab, V domains shown, Fab) VH: EVQLVQSGAEVKKPGASVKVSCKASGYTFRDSEMHWVRQAPGQGLEWIGGVDPETDGAAYNQKFKGRATITRDTSTSTAYLELSSLRSEDTAVYYCTRGYDYDYALDYWGQGTLVTVSS VL: DIQMTQSPSSLSASVGDRVTITCRASSSVEFIHWYQQKPGKAPKPLISATSNLASGVPSRFSGSGSGTDFTLTISSLQPEDFATYYCQQWSSNPWTFGQGTKVEIK",302,0.000109,362000

# Source: patent US20170145113A1 (Genentech, published 2017)
